Test results as given in publication PMC9127804.

Target: N-terminal hexahistidine-tagged CrlT (Pseudomonas aeruginosa WK172)
Test: pull-down; NHis-CrlT and untagged CrlA co-produced from pET28b-His-crlTA in E. coli BL21; Ni-NTA resin, lysis buffer 50 mM potassium phosphate pH 8.0, 300 mM NaCl; Tricine-SDS-PAGE

untagged antitoxin CrlA (natural protein)
stoichiometry N: 1
